# According to the supplement of paper PMC10065799, “High-throughput profiling of sequence recognition by tyrosine kinases and SH2 domains using bacterial peptide display” (eLife, 2023):
# Key:
# SHP2-C SH2 = assay: SH2 binding enrichment of the phosphorylated peptide, bacterial display (enrichment ratio); higher = better substrate or ligand; peptides without Tyr show the background
# c-Src SH2 = assay: as above
# Grb2 SH2 = Grb2 SH2 (UniProt P62993); assay: as above
# FGFR1 = FGFR1 (UniProt P11362); assay: phosphorylation enrichment, bacterial display (enrichment ratio); higher = better substrate or ligand; peptides without Tyr show the background
# Sequence of FGFR1 (P11362 whole entry, looked up): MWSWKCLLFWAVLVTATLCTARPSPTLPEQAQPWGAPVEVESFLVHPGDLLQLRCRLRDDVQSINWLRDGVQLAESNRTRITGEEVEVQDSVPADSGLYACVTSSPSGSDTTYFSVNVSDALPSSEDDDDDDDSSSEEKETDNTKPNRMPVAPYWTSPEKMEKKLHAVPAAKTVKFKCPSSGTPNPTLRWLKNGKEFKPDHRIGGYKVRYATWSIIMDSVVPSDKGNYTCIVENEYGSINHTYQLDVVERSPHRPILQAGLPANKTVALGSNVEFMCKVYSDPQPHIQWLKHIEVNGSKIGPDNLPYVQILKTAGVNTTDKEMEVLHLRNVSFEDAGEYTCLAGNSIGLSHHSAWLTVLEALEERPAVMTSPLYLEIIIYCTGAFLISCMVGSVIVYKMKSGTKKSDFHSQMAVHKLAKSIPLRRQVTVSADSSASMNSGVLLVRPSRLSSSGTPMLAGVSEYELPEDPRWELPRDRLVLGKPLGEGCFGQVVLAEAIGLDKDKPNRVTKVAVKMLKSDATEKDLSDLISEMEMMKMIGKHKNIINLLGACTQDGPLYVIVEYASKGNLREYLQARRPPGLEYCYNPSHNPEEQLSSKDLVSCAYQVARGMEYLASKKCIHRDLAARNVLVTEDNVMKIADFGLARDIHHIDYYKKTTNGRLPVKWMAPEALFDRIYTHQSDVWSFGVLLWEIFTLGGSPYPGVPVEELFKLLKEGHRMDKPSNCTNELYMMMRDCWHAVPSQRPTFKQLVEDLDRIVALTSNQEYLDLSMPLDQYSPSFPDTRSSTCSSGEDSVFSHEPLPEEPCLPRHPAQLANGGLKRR
# MERTK = MERTK (UniProt Q12866); assay: as above
# Fyn = Fyn (UniProt P06241); assay: as above
# c-Abl (mouse) = assay: as above
# Hck = Hck (UniProt P08631); assay: as above
# FGFR3 = FGFR3 (UniProt P22607); assay: as above
# Sequence of FGFR3 (P22607 whole entry, looked up): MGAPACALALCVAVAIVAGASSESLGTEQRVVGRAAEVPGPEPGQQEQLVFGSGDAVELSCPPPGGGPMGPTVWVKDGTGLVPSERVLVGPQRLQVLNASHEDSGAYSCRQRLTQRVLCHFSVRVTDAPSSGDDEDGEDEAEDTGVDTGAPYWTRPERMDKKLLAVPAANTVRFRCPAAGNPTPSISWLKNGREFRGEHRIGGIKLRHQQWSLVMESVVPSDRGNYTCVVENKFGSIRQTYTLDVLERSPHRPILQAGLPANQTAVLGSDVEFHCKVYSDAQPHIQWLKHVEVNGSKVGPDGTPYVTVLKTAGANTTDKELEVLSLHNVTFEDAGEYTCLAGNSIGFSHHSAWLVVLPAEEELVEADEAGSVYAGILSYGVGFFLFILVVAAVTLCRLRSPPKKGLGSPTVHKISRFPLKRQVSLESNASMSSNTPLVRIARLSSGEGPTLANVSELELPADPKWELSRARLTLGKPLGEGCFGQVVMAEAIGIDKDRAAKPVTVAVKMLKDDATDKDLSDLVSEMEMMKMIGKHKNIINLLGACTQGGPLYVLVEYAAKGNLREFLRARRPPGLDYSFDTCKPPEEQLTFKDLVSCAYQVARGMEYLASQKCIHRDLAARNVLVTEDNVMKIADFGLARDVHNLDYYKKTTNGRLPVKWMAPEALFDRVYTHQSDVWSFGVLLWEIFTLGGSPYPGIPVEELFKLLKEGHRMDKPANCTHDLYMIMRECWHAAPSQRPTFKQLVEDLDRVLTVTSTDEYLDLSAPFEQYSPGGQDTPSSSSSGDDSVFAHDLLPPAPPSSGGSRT
# EPHB2 = EPHB2 (UniProt P29323); assay: as above
# Sequence of EPHB2 (P29323 whole entry, looked up): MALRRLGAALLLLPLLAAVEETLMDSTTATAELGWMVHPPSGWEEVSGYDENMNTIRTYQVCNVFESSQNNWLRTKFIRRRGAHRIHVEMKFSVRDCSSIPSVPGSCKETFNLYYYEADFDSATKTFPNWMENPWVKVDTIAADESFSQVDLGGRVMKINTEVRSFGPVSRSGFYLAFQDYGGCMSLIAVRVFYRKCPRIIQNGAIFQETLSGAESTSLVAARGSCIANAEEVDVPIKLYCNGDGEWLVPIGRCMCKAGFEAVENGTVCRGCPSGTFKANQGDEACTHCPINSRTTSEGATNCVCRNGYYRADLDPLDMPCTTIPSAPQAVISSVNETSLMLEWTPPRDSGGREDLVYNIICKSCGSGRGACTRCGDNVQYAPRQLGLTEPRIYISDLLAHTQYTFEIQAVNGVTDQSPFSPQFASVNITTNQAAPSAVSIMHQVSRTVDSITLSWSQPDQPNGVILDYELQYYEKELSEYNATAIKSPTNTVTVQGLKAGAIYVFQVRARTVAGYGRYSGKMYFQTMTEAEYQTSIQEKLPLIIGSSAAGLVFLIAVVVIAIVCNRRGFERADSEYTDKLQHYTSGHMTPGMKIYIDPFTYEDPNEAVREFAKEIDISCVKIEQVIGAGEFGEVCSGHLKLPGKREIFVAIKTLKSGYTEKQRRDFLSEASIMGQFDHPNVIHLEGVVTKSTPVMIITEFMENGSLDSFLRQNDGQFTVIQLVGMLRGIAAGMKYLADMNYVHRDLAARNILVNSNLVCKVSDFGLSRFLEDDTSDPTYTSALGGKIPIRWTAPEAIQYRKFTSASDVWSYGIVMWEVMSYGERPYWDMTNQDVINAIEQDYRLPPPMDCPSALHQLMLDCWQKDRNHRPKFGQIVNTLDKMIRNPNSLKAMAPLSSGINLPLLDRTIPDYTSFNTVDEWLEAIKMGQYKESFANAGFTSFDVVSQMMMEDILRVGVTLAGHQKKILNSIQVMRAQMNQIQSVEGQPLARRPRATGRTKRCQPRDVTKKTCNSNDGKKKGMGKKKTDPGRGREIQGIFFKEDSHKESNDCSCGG
# EPHB1 = EPHB1 (UniProt P54762); assay: as above
# Sequence of EPHB1 (P54762 whole entry, looked up): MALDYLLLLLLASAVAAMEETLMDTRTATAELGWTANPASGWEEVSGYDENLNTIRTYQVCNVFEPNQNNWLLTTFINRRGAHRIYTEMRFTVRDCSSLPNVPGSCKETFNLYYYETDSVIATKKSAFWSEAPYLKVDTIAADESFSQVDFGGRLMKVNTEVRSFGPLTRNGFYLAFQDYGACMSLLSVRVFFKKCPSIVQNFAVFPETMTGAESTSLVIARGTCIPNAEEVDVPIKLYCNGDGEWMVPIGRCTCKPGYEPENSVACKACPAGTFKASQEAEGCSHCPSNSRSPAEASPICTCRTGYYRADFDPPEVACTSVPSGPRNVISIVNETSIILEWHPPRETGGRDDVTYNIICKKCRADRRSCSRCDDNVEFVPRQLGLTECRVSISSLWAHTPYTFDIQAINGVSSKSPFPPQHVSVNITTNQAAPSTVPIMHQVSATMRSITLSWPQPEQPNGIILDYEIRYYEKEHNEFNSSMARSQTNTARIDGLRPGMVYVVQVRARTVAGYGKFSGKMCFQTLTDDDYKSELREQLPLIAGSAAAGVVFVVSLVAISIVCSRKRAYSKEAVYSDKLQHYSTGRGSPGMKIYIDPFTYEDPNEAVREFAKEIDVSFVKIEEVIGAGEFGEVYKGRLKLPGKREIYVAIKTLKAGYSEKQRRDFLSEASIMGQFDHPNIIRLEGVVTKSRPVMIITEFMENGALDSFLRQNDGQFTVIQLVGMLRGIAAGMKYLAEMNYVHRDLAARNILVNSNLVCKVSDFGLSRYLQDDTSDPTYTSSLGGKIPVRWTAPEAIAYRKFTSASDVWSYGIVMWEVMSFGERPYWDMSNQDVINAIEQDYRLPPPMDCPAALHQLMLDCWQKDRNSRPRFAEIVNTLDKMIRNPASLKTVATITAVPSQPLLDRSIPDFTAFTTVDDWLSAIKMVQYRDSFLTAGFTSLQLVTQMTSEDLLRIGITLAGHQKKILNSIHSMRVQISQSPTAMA
# Jak2 = Jak2 (UniProt O60674); assay: as above
# Sequence of Jak2 (O60674 whole entry, looked up): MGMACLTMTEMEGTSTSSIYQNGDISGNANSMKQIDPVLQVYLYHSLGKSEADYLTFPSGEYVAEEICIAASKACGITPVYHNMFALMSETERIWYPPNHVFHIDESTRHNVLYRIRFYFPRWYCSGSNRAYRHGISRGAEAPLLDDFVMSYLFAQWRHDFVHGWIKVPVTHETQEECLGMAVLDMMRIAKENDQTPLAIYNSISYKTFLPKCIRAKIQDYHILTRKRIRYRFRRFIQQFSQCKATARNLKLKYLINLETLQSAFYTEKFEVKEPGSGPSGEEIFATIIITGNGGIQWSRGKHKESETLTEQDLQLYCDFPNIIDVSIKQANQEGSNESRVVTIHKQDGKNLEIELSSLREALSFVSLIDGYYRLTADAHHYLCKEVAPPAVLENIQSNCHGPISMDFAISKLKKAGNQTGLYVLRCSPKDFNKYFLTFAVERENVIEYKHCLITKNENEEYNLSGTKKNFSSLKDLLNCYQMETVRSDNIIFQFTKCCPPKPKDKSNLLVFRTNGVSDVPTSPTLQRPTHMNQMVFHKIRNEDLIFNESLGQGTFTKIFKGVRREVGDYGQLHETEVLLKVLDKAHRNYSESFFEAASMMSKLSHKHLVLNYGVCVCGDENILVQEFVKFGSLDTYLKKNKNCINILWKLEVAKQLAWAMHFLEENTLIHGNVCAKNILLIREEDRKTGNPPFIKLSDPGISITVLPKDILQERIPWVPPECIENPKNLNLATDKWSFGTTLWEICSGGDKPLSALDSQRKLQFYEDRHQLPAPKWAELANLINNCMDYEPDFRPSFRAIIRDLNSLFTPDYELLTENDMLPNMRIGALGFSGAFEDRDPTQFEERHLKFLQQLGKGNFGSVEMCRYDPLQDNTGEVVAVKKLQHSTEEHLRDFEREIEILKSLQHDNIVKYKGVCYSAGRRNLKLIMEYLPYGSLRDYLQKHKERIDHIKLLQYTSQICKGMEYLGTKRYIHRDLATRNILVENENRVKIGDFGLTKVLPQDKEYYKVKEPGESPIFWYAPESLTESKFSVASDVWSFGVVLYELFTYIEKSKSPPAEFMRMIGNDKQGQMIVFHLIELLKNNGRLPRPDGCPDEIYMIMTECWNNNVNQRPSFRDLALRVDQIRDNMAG
# AncSZ = assay: as above
# Fes = Fes (UniProt P07332); assay: as above
# Fer (mouse) = assay: as above
# c-Src = assay: as above
# 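For SH2 binding enrichment of the phosphorylated peptide, bacterial display in this document: peptide library displayed on the E. coli surface as eCPX fusions, selected cells deep-sequenced, score is each peptide's frequency after selection divided by its frequency in the input.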
# 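For phosphorylation enrichment, bacterial display in this document: 11-residue human phosphosite peptides and single-mutation variants displayed on the E. coli surface, counted by deep sequencing, each peptide's frequency after selection divided by its frequency in the unselected input library; frequency after pTyr selection over input frequency; kinase dosed for 20-30% of maximal phosphorylation in three min.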
# Sequence of Grb2 SH2 (P62993 whole entry, looked up): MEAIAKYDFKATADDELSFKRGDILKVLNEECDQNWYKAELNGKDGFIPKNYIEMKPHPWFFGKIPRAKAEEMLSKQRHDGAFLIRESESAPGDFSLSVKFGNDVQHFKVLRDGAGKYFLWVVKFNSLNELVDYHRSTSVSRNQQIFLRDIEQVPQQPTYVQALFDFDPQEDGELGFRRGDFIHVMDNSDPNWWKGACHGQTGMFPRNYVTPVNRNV
Sequence,SH2 binding enrichment (SHP2-C SH2),SH2 binding enrichment (c-Src SH2),SH2 binding enrichment (Grb2 SH2),phosphorylation enrichment (FGFR1),phosphorylation enrichment (MERTK),phosphorylation enrichment (Fyn),phosphorylation enrichment (c-Abl (mouse)),phosphorylation enrichment (Hck),phosphorylation enrichment (FGFR3),phosphorylation enrichment (EPHB2),phosphorylation enrichment (EPHB1),phosphorylation enrichment (Jak2),phosphorylation enrichment (AncSZ),phosphorylation enrichment (Fes),phosphorylation enrichment (Fer (mouse)),phosphorylation enrichment (c-Src)
SVTCTYSLALN [TP53_Y126_P128L],0.781,0.503,0.956,0.653,0.614,0.78,0.951,0.628,0.802,0.6,0.688,1.13,1.21,1.38,0.558,1.65
EARRVYGDIIF [ALDH5A1_Y175_H180Y_YF],0.689,0.485,0.818,0.505,0.536,0.635,0.637,0.509,0.578,0.448,0.4,0.719,0.683,0.897,0.493,0.654
EFAAGYNVKFD [GPX4_Y123],0.727,0.503,0.707,0.697,0.461,0.465,0.389,0.449,0.544,0.397,0.425,0.502,0.739,0.862,0.483,0.419
KDDEKYLDVSR [MTM1_Y260_I264S],0.649,0.532,0.794,0.473,0.423,0.456,0.824,0.457,0.655,0.556,0.521,0.973,0.951,1.09,0.442,0.433
CTTIHYNFMWN [TP53_Y234_C238W_YF],0.802,0.669,0.924,0.621,0.717,0.508,1.09,0.543,0.981,0.727,0.725,1.5,1.43,1.66,1.04,0.59
LSSETYVKSYT [F5_Y2149_M2148T],0.818,0.555,0.936,0.606,0.513,0.726,0.908,0.529,0.582,0.74,0.553,1.37,0.946,0.902,0.738,0.668
IPPRRYFRSGV [STAMBP_Y36],0.526,0.471,0.644,0.414,0.608,0.639,0.717,0.573,0.61,0.523,0.531,0.714,0.778,0.676,0.548,0.61
VVKLAYNENDN [CAMKK2_Y183],0.622,0.408,0.904,0.518,0.374,0.478,0.592,0.527,0.672,0.55,0.449,0.624,0.856,0.897,0.484,0.404
ILGRTHYVNHE [NEDD4_Y627_Y627H],1.44,0.767,5.66,0.419,0.398,0.373,0.596,0.318,0.434,0.671,0.468,0.582,0.565,0.593,0.376,0.482
FKDGQYWIRGQ [ACSF3_Y466_R471Q],0.688,0.592,0.856,0.598,0.385,0.477,0.433,0.915,0.663,0.598,0.522,0.507,0.831,0.876,0.32,0.426
IMITDYLLLFR [INSR_Y87],1.38,1.04,1.38,1.36,0.399,0.467,0.829,0.502,1.2,0.647,0.678,1.55,1.21,1.18,0.513,0.481
GEDEPYAEPYA [APBA1_Y183_S184A],0.885,0.821,1.1,0.608,0.636,0.609,0.915,0.544,0.799,0.694,0.685,1.33,1.59,1.53,0.525,0.639
PNQRRYVYYYS [PTEN_Y174_S170N],3.49,2.17,1.17,3,3.81,1.86,0.841,1.29,1.61,1.57,1.07,1.37,2.88,2.29,0.817,1.06
IHTEFYDGLFP [BCR_Y561_K558T],0.459,0.63,0.82,0.683,1.02,1.06,0.902,3.83,0.813,0.828,0.739,0.993,1.47,1.34,1.65,1.24
PLSGEYFTLQI [TP53_Y327_D324S],0.679,0.432,0.793,13.7,0.763,4.49,2.51,1.89,9.65,1.2,1.82,6.87,3.93,1.62,0.722,3.48
LSALDYKIFYY [WDPCP_Y210],0.868,0.956,1.03,0.816,0.365,0.511,0.787,0.499,0.928,0.602,0.634,1.29,1.18,1.18,0.404,0.495
